Data on 27 molecules can be found in publication PMC10786891, “Massively parallel profiling of RNA-targeting CRISPR-Cas13d”.

T1: EsCas13d, nuclease-dead (Eubacterium siraeum, UniProt B0MS50, R295A;H300A;R849A;H854A)
T1 sequence: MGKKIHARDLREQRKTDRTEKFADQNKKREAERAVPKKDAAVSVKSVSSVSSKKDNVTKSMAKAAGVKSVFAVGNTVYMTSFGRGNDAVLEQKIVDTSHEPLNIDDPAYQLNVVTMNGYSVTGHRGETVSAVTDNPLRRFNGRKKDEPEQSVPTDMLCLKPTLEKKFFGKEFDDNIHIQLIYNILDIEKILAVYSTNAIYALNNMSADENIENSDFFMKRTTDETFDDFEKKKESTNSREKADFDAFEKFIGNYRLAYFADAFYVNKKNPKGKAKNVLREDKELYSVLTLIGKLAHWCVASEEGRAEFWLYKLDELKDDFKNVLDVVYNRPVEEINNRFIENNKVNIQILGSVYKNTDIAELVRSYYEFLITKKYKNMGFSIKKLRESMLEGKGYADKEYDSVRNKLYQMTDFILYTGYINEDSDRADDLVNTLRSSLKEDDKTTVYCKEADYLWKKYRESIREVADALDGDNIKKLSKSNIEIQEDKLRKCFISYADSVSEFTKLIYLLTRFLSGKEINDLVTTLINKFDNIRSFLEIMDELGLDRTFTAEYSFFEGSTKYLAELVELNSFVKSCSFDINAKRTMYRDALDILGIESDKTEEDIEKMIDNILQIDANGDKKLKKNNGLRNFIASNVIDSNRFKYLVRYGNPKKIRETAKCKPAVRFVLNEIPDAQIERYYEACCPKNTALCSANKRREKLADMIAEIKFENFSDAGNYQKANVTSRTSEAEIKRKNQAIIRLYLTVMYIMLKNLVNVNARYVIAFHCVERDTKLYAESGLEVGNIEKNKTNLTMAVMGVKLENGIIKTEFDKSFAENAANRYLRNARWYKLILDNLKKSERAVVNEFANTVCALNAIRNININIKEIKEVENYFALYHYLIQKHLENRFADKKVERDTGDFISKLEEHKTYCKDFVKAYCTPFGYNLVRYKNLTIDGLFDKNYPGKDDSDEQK

B1: target 2 MT 5'PFS GAC 3'PFS UCA (mixed)
RNA 1: CACCCGUGCAAAAUUGCAGGGGUCUAAAACCUUCUCCAAAUUGUUUCAUCCU
RNA 2: GGGAAUGGAUCCACAUCUACGAAUUCGACAGGAUGAAACAAUUUGGAGAAGUCAAGAUCGGAAGAGCACACGU
B2: target 2 MT 5'PFS AGU 3'PFS AUU (mixed)
RNA 1: CACCCGUGCAAAAUUGCAGGGGUCUAAAACCUUCUCCAAAUUGUUUCAUCCU
RNA 2: GGGAAUGGAUCCACAUCUACGAAUUCAGUAGGAUGAAACAAUUUGGAGAAGAUUAGAUCGGAAGAGCACACGU
B3: target 2 MT 5'PFS GAG 3'PFS CUG (mixed)
RNA 1: CACCCGUGCAAAAUUGCAGGGGUCUAAAACCUUCUCCAAAUUGUUUCAUCCU
RNA 2: GGGAAUGGAUCCACAUCUACGAAUUCGAGAGGAUGAAACAAUUUGGAGAAGCUGAGAUCGGAAGAGCACACGU
B4: target 2 MT 5'PFS GCA 3'PFS UCU (mixed)
RNA 1: CACCCGUGCAAAAUUGCAGGGGUCUAAAACCUUCUCCAAAUUGUUUCAUCCU
RNA 2: GGGAAUGGAUCCACAUCUACGAAUUCGCAAGGAUGAAACAAUUUGGAGAAGUCUAGAUCGGAAGAGCACACGU
B5: target 2 MT 5'PFS CAU 3'PFS UAU (mixed)
RNA 1: CACCCGUGCAAAAUUGCAGGGGUCUAAAACCUUCUCCAAAUUGUUUCAUCCU
RNA 2: GGGAAUGGAUCCACAUCUACGAAUUCCAUAGGAUGAAACAAUUUGGAGAAGUAUAGAUCGGAAGAGCACACGU
B6: target 2 MT 5'PFS GGU 3'PFS CUG (mixed)
RNA 1: CACCCGUGCAAAAUUGCAGGGGUCUAAAACCUUCUCCAAAUUGUUUCAUCCU
RNA 2: GGGAAUGGAUCCACAUCUACGAAUUCGGUAGGAUGAAACAAUUUGGAGAAGCUGAGAUCGGAAGAGCACACGU
B7: target 2 MT 5'PFS CAU 3'PFS UAA (mixed)
RNA 1: CACCCGUGCAAAAUUGCAGGGGUCUAAAACCUUCUCCAAAUUGUUUCAUCCU
RNA 2: GGGAAUGGAUCCACAUCUACGAAUUCCAUAGGAUGAAACAAUUUGGAGAAGUAAAGAUCGGAAGAGCACACGU
B8: target 2 MT 5'PFS AGG 3'PFS ACG (mixed)
RNA 1: CACCCGUGCAAAAUUGCAGGGGUCUAAAACCUUCUCCAAAUUGUUUCAUCCU
RNA 2: GGGAAUGGAUCCACAUCUACGAAUUCAGGAGGAUGAAACAAUUUGGAGAAGACGAGAUCGGAAGAGCACACGU
B9: target 2 MT 5'PFS GAG 3'PFS CUC (mixed)
RNA 1: CACCCGUGCAAAAUUGCAGGGGUCUAAAACCUUCUCCAAAUUGUUUCAUCCU
RNA 2: GGGAAUGGAUCCACAUCUACGAAUUCGAGAGGAUGAAACAAUUUGGAGAAGCUCAGAUCGGAAGAGCACACGU
B10: target 2 MT 5'PFS UGG 3'PFS UUC (mixed)
RNA 1: CACCCGUGCAAAAUUGCAGGGGUCUAAAACCUUCUCCAAAUUGUUUCAUCCU
RNA 2: GGGAAUGGAUCCACAUCUACGAAUUCUGGAGGAUGAAACAAUUUGGAGAAGUUCAGAUCGGAAGAGCACACGU
B11: target 2 MT 5'PFS CUU 3'PFS UCC (mixed)
RNA 1: CACCCGUGCAAAAUUGCAGGGGUCUAAAACCUUCUCCAAAUUGUUUCAUCCU
RNA 2: GGGAAUGGAUCCACAUCUACGAAUUCCUUAGGAUGAAACAAUUUGGAGAAGUCCAGAUCGGAAGAGCACACGU
B12: target 2 MT 5'PFS CUU 3'PFS UCA (mixed)
RNA 1: CACCCGUGCAAAAUUGCAGGGGUCUAAAACCUUCUCCAAAUUGUUUCAUCCU
RNA 2: GGGAAUGGAUCCACAUCUACGAAUUCCUUAGGAUGAAACAAUUUGGAGAAGUCAAGAUCGGAAGAGCACACGU
B13: target 2 MT 5'PFS GAG 3'PFS CUA (mixed)
RNA 1: CACCCGUGCAAAAUUGCAGGGGUCUAAAACCUUCUCCAAAUUGUUUCAUCCU
RNA 2: GGGAAUGGAUCCACAUCUACGAAUUCGAGAGGAUGAAACAAUUUGGAGAAGCUAAGAUCGGAAGAGCACACGU
B14: target 2 MT 5'PFS GGU 3'PFS CUA (mixed)
RNA 1: CACCCGUGCAAAAUUGCAGGGGUCUAAAACCUUCUCCAAAUUGUUUCAUCCU
RNA 2: GGGAAUGGAUCCACAUCUACGAAUUCGGUAGGAUGAAACAAUUUGGAGAAGCUAAGAUCGGAAGAGCACACGU
B15: target 2 MT 5'PFS GUU 3'PFS CUU (mixed)
RNA 1: CACCCGUGCAAAAUUGCAGGGGUCUAAAACCUUCUCCAAAUUGUUUCAUCCU
RNA 2: GGGAAUGGAUCCACAUCUACGAAUUCGUUAGGAUGAAACAAUUUGGAGAAGCUUAGAUCGGAAGAGCACACGU
B16: target 2 MT 5'PFS AAG 3'PFS CAU (mixed)
RNA 1: CACCCGUGCAAAAUUGCAGGGGUCUAAAACCUUCUCCAAAUUGUUUCAUCCU
RNA 2: GGGAAUGGAUCCACAUCUACGAAUUCAAGAGGAUGAAACAAUUUGGAGAAGCAUAGAUCGGAAGAGCACACGU
B17: target 2 MT 5'PFS GUA 3'PFS UUU (mixed)
RNA 1: CACCCGUGCAAAAUUGCAGGGGUCUAAAACCUUCUCCAAAUUGUUUCAUCCU
RNA 2: GGGAAUGGAUCCACAUCUACGAAUUCGUAAGGAUGAAACAAUUUGGAGAAGUUUAGAUCGGAAGAGCACACGU
B18: target 2 MT 5'PFS CAU 3'PFS UAC (mixed)
RNA 1: CACCCGUGCAAAAUUGCAGGGGUCUAAAACCUUCUCCAAAUUGUUUCAUCCU
RNA 2: GGGAAUGGAUCCACAUCUACGAAUUCCAUAGGAUGAAACAAUUUGGAGAAGUACAGAUCGGAAGAGCACACGU
B19: target 2 MT 5'PFS GCU 3'PFS CAG (mixed)
RNA 1: CACCCGUGCAAAAUUGCAGGGGUCUAAAACCUUCUCCAAAUUGUUUCAUCCU
RNA 2: GGGAAUGGAUCCACAUCUACGAAUUCGCUAGGAUGAAACAAUUUGGAGAAGCAGAGAUCGGAAGAGCACACGU
B20: target 2 MT 5'PFS UUU 3'PFS CCG (mixed)
RNA 1: CACCCGUGCAAAAUUGCAGGGGUCUAAAACCUUCUCCAAAUUGUUUCAUCCU
RNA 2: GGGAAUGGAUCCACAUCUACGAAUUCUUUAGGAUGAAACAAUUUGGAGAAGCCGAGAUCGGAAGAGCACACGU
B21: target 2 MT 5'PFS CUU 3'PFS UCG (mixed)
RNA 1: CACCCGUGCAAAAUUGCAGGGGUCUAAAACCUUCUCCAAAUUGUUUCAUCCU
RNA 2: GGGAAUGGAUCCACAUCUACGAAUUCCUUAGGAUGAAACAAUUUGGAGAAGUCGAGAUCGGAAGAGCACACGU
B22: target 2 MT 5'PFS GGU 3'PFS CUC (mixed)
RNA 1: CACCCGUGCAAAAUUGCAGGGGUCUAAAACCUUCUCCAAAUUGUUUCAUCCU
RNA 2: GGGAAUGGAUCCACAUCUACGAAUUCGGUAGGAUGAAACAAUUUGGAGAAGCUCAGAUCGGAAGAGCACACGU
B23: target 2 MT 5'PFS CUU 3'PFS UCU (mixed)
RNA 1: CACCCGUGCAAAAUUGCAGGGGUCUAAAACCUUCUCCAAAUUGUUUCAUCCU
RNA 2: GGGAAUGGAUCCACAUCUACGAAUUCCUUAGGAUGAAACAAUUUGGAGAAGUCUAGAUCGGAAGAGCACACGU
B24: target 2 MT 5'PFS CAU 3'PFS UAG (mixed)
RNA 1: CACCCGUGCAAAAUUGCAGGGGUCUAAAACCUUCUCCAAAUUGUUUCAUCCU
RNA 2: GGGAAUGGAUCCACAUCUACGAAUUCCAUAGGAUGAAACAAUUUGGAGAAGUAGAGAUCGGAAGAGCACACGU
B25: target 2 MT 5'PFS GCU 3'PFS CAC (mixed)
RNA 1: CACCCGUGCAAAAUUGCAGGGGUCUAAAACCUUCUCCAAAUUGUUUCAUCCU
RNA 2: GGGAAUGGAUCCACAUCUACGAAUUCGCUAGGAUGAAACAAUUUGGAGAAGCACAGAUCGGAAGAGCACACGU
B26: target 1 insA 3' of 21,insU 3' of 13 (mixed)
RNA 1: CACCCGUGCAAAAAUGCAGGGGUCUAAAACUGAGCGGAUAACCUCUCUAUGG
RNA 2: GGGAAUGGAUCCACAUCUACGAAUUCGUACCAAUAGAGAGUGUUAUCCGCUCACCGAGAUCGGAAGAGCACACGU
B27: target 1 U3G,U19A (mixed)
RNA 1: CACCCGUGCAAAAAUGCAGGGGUCUAAAACUGAGCGGAUAACCUCUCUAUGG
RNA 2: GGGAAUGGAUCCACAUCUACGAAUUCGUACCAAAGAGAGGUUAUCCGCGCACCGAGAUCGGAAGAGCACACGU

The target of the data set is T1, EsCas13d, nuclease-dead. In words: crRNA (strand 1, pre-loaded); Mg2+; 40 mM Tris-HCl pH 7.5, 150 mM NaCl, 6 mM MgCl2, 1 mM DTT, 0.1% Tween-20, 0.2 mg/ml BSA; 25 C; 10 min per concentration, then washed. The conditions noted are these: tags: His6-TwinStrep-SUMO cleaved; N-terminal SNAP kept (SNAP-Surface 488); label: 3' end held by stalled T7 RNA polymerase.
What is called Kd is a measure of binding affinity in units of concentration. High values mean lower affinity, low ones higher affinity. Molecule B1 displayed a Kd of 13.8 ± 3.4 nM. For B2 the value was 12.1 ± 2.1 nM; for B3, 8.1 ± 0.8 nM. For B4 the value was 27 ± 12 nM. The figure for B5 is 4 ± 0.4 nM. B6 registered a Kd of 14 ± 1.3 nM. As to B7, the Kd stood at 4.7 ± 0.8 nM. This Kd is about 3-fold lower than that of the molecule before.

In turn, B8 yielded a Kd of 6.7 ± 0.6 nM. Consider B9, for which the dissociation constant Kd was 11.3 ± 1.2 nM. The figure for B10 is 19.2 ± 2.8 nM.

Regarding B11, the Kd came to 8.2 ± 0.5 nM. The figure for B12 is 4.8 ± 0.5 nM; for B13 it is 7.9 ± 1.1 nM. The figure for B14 is 12.6 ± 1.4 nM. Molecule B15 displayed a Kd of 16.6 ± 1.6 nM. B16 showed a Kd of 3.4 ± 0.5 nM. For B17 the value was 62 ± 18 nM. For B18 the value was 3.7 ± 0.7 nM; for B19, 17 ± 4 nM; for B20, 9.8 ± 1 nM. B21 displayed a Kd of 4.6 ± 0.4 nM. For B22 the value was 17.8 ± 1.9 nM. As to B23, binding was put at a Kd of 8.1 ± 0.8 nM. This Kd lies about 2.2-fold lower than the previous one. The figure for B24 is 5.6 ± 1.2 nM; for B25 it is 10 ± 1.7 nM. The molecule B26 returned a Kd of 26 ± 9 nM. The figure for B27 is 45 ± 10 nM.
